Test results reported in PMC8748748.
Substitutions are numbered along the chain they refer to. Names may count otherwise.

B1: Rat amylin (islet amyloid polypeptide, IAPP) (Rattus norvegicus) (peptide)
chain: KCNTATCATQRLANFLVRSSNNLGPVLPPTNVGSNTY
B2: Ac-pramlintide (N-acetylated pramlintide) (Homo sapiens (synthetic analogue); A25P;S28P;S29P) (peptide)
chain: B1 chain with R18H, L23F, V26I
B3: Pramlintide (synthetic human amylin analogue, Symlin) (Homo sapiens (synthetic analogue); A25P;S28P;S29P) (peptide)
chain: B1 chain with R18H, L23F, V26I
B4: Amylin(1-19), membrane-disrupting fragment of human amylin (IAPP) (Homo sapiens) (peptide)
chain: KCNTATCATQRLANFLVHS

Experiments:
Experiment in all cases: potentiometry
[1] = target: Tyr37 (position 37, VGSNTY-----)
[2] = target: Nterm1 (position 1, -----KCNTAT)
[3] = target: Lys1 (position 1, -----KCNTAT)
His18 (position 18, …) = target: His18 (position 18, …)
[4] = target: His18 (position 18, ANFLVHS----)
[5] = 298 K, 40 mM SDS (stated as the ionic strength), none (ligand 0.5 mM, Cu(II):ligand 0.9:1), Cu(II)-bound peptide (1:1 complex) in SDS, the titrating residue is not coordinated to the metal
[6] = 298 K, 40 mM SDS (stated as the ionic strength), none (ligand 0.5 mM; electrode calibrated by titrating HClO4 with NaOH), metal-free peptide in SDS, helical-like structure by CD
[7] = not stated for the quoted titrations (the Figure 4 competition plot caption gives T = 298 K), metal-free peptide in water, cited from earlier work

Protein	pKa [1, 5]	pKa [1, 6]	pKa [1, 7]	pKa [2, 6]	pKa [2, 7]	pKa [3, 5]	pKa [3, 6]	pKa [3, 7]	pKa (His18 (position 18, …); [6])	pKa (His18 (position 18, …); [7])	pKa [2, 5]	pKa [4, 6]	pKa [4, 7]
B1	9.61	10.08	9.49	7.85	7.13	10.04	10.44	10.20					
B2		10.01					10.50		7.57				
B3	10.28	9.93	9.67	8.39	7.53	10.89	10.92	10.32	6.76	5.79			
B4				8.18	7.97	10.05	9.88	10.83			8.98	7.28	6.04
